In patent US20170369576A1:

Key:
[1] = biological target: chimpanzee CD4 on PBMC (chimpanzee) (UniProt P16004); experiment: FACS of chimp X282 PBMC, sequential staining: 1st B4 binding, 2nd Leu3a exposure; competitor B4 prebound
[2] = biological target: chimpanzee CD4 on PBMC (chimpanzee) (UniProt P16004); experiment: FACS of chimp X301 PBMC, sequential staining: 1st B4 binding, 2nd Leu3a exposure; competitor B4 prebound
[3] = biological target: chimpanzee CD4 on PBMC (chimpanzee) (UniProt P16004); experiment: FACS of chimp X282 PBMC stained with Leu3a-PE only
[4] = biological target: chimpanzee CD4 on PBMC (chimpanzee) (UniProt P16004); experiment: FACS of chimp X301 PBMC stained with Leu3a-PE only
[5] = biological target: chimpanzee CD4 on PBMC (chimpanzee) (UniProt P16004); experiment: FACS of chimp X282 PBMC, sequential staining: 1st Leu3a binding, 2nd B4 exposure
[6] = biological target: chimpanzee CD4 on PBMC (chimpanzee) (UniProt P16004); experiment: FACS of chimp X301 PBMC, sequential staining: 1st Leu3a binding, 2nd B4 exposure
[7] = biological target: HIV-1 envelope glycoprotein of isolate JRCSF (R5), on pseudotype virus (HIV-1 (JRCSF)); experiment: cell-based or functional assay
[8] = biological target: HIV-1 envelope glycoprotein of isolate HXB2 (X4), on pseudotype virus (HIV-1 (HXB2)) (UniProt P04578); experiment: cell-based or functional assay
[9] = biological target: HIV-1 envelope glycoprotein of isolate 92TH594 (R5/X4), on pseudotype virus (HIV-1 (92TH594)); experiment: cell-based or functional assay

Chain of chimpanzee CD4 on PBMC (chimpanzee) (P16004 26-458): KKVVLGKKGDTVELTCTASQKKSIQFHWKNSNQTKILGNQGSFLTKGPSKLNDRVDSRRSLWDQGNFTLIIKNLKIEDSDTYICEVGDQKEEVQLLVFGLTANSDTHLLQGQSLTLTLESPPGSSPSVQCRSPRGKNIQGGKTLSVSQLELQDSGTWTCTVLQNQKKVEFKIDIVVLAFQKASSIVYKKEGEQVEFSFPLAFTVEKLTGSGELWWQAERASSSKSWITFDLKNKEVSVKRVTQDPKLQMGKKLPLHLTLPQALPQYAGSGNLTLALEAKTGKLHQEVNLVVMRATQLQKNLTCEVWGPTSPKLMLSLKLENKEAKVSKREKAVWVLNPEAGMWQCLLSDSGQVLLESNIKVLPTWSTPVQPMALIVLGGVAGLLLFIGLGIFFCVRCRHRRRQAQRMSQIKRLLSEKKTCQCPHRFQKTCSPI

Substance	percent positive PBMC (Leu3a+ B4+) [1] [%]	percent positive PBMC (Leu3a+ B4-) [1] [%]	percent positive PBMC (Leu3a+ B4+) [2] [%]	percent positive PBMC (Leu3a+ B4-) [2] [%]	percent positive PBMC (single label control, Leu3a+) [3] [%]	percent positive PBMC (single label control, Leu3a+) [4] [%]	percent positive PBMC (Leu3a+ B4-) [5] [%]	percent positive PBMC (Leu3a+ B4-) [6] [%]	IC50 of HIV entry inhibition, pseudotype virus JRCSF (R5), U87-CD4+/CCR5+/CXCR4+ cells [7] [µg/mL]	IC50 of HIV entry inhibition, pseudotype virus HXB2 (X4), U87-CD4+/CCR5+/CXCR4+ cells [8] [µg/mL]	IC50 of HIV entry inhibition, pseudotype virus 92TH594 (R5/X4), U87-CD4+/CCR5+/CXCR4+ cells [9] [µg/mL]
anti-CD4 monoclonal antibody Leu3a	1.2	0	3	0	25.5	44	0.1	0.3	–	–	–
monoclonal neutralizing antibody 2G12	–	–	–	–	–	–	–	–	0.8	0.5	1.3
monoclonal neutralizing antibody 2F5	–	–	–	–	–	–	–	–	4	0.07	3
